{"source": "patent US20160171150A1", "about": "“Chemical Modulators of Pro-Apoptotic BAX and BCL-2 Polypeptides” (Dana-Farber Cancer Institute, Inc., priority 2008, published 2016)", "biological_target": "T1, BAX (Homo sapiens, UniProt Q07812)", "T1 construct": "Full-length human BAX-encoding cDNA (aa 1-192) was cloned into pTYB1 plasmid; made in house; host or cells: Escherichia coli BL21(DE3)", "T1 sequence (Q07812 whole entry, the tested form may be a part)": "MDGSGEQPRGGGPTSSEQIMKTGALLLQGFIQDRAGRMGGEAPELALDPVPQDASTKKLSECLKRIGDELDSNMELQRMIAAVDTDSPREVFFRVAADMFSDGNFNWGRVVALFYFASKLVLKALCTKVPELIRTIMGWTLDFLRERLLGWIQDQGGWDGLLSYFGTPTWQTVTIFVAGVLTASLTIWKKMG", "experiment": "NMR analysis of BIM SAHB binding to BAX", "conditions": "1H-15N correlation spectrum, BIM SAHB titration", "excerpt": "To investigate the initiating event for BAX activation, the interaction of BAX with the BH3 ligand BIM SAHB was studied. […] BIM SAHB binding to BAX was monitored using Nuclear Magnetic Resonance (NMR) spectroscopy. Compared to the ^1H-^15N correlation spectrum of BAX, the addition of BIM SAHB broadened and shifted select NMR cross-peaks, indicating fast exchange between the bound and unbound conformations of BAX. The overall features of the NMR spectra were quite similar except for significant changes in the loop residues between α1 and α2 upon BIM SAHB binding. […] Significant changes were also observed for the side-chain NH2 of Q28, Q32, and Q52. […]\nScreening by NMR is conducted by recording ^1H-^13C filtered-1D experiments of uniformly ^13C-labeled BAX at 25-50 μM concentrations, in the absence and presence of compounds at 50-100 μM concentrations. […] The weighted average chemical shift difference is calculated as √{square root over ({(ΔH)2+(ΔN/5)2}/2)} in p.p.m. and plotted as a function of the residue number of BAX. […] NMR experiments are processed with the NMRPipe spectral analysis package and chemical shifts variations measured with NMRView software. NMR spectra are recorded, for example, at 30° C. on Bruker Avance 600 MHz equipped with a z-shielded gradient, triple resonance cryoprobe.", "data": [{"substance": "BIM SAHB: hydrocarbon-stapled BIM BH3 peptide (SEQ ID NO:3), Stabilized Alpha-Helix of BCL-2 domain; direct BAX-activating compound", "values": [{"measurement": "binding to BAX (chemical shift perturbation mapping)", "result": "revealed interactions at a discrete subset of BAX residues"}]}]}
